Experiments:
Test in all cases: cell-based or functional assay
[1] = biological target: HIV-1 Env of 0260.v5.c36 (HIV-1)
[2] = biological target: HIV-1 Env of 3016.V5.c36 (HIV-1)
[3] = biological target: HIV-1 Env of 6405.v4.c34 (HIV-1)
[4] = biological target: HIV-1 Env of 6535.3 (HIV-1)
[5] = biological target: HIV-1 Env of 96ZM651.02 (HIV-1)
[6] = biological target: HIV-1 Env of AC10.29 (HIV-1)
[7] = biological target: HIV-1 Env of BG505.w6m (HIV-1)
[8] = biological target: HIV-1 Env of C1080.c3 (HIV-1)
[9] = biological target: HIV-1 Env of CAAN.A2 (HIV-1)
[10] = biological target: HIV-1 Env of CAP210.E8 (HIV-1)
[11] = biological target: HIV-1 Env of CAP244.D3 (HIV-1)
[12] = biological target: HIV-1 Env of CAP256.PI (HIV-1)
[13] = biological target: HIV-1 Env of CAP256.SU (HIV-1)
[14] = biological target: HIV-1 Env of CAP45.G3 (HIV-1)
[15] = biological target: HIV-1 Env of CM244.ec1 (HIV-1)
[16] = biological target: HIV-1 Env of CNE3 (HIV-1)
[17] = biological target: HIV-1 Env of DU156.12 (HIV-1)
[18] = biological target: HIV-1 Env of DU172.17 (HIV-1)
[19] = biological target: HIV-1 Env of DU422.01 (HIV-1)
[20] = biological target: HIV-1 Env of KER2008.12 (HIV-1)
[21] = biological target: HIV-1 Env of KER2018.11 (HIV-1)
[22] = biological target: HIV-1 Env of MB201 (HIV-1)
[23] = biological target: HIV-1 Env of MB539.2B7 (HIV-1)
[24] = biological target: HIV-1 Env of PVO.04 (HIV-1)
[25] = biological target: HIV-1 Env of Q168.a2 (HIV-1)
[26] = biological target: HIV-1 Env of Q23.17 (HIV-1)
[27] = biological target: HIV-1 Env of Q259.d2.17 (HIV-1)
[28] = biological target: HIV-1 Env of Q461.e2 (HIV-1)
[29] = biological target: HIV-1 Env of Q769.d22 (HIV-1)
[30] = biological target: HIV-1 Env of Q842.d12 (HIV-1)
[31] = biological target: HIV-1 Env of QH0692.42 (HIV-1)
[32] = biological target: HIV-1 Env of REJO.67 (HIV-1)
[33] = biological target: HIV-1 Env of RHPA.7 (HIV-1)
[34] = biological target: HIV-1 Env of RW020.2 (HIV-1)
[35] = biological target: HIV-1 Env of SC422.8 (HIV-1)
[36] = biological target: HIV-1 Env of TH976.17 (HIV-1)
[37] = biological target: HIV-1 Env of THRO.18 (HIV-1)
[38] = biological target: HIV-1 Env of TRJO.58 (HIV-1)
[39] = biological target: HIV-1 Env of TRO.11 (HIV-1)
[40] = biological target: HIV-1 Env of UG037.8 (HIV-1)
[41] = biological target: HIV-1 Env of WITO.33 (HIV-1)
[42] = biological target: HIV-1 Env of ZM109.4 (HIV-1)
[43] = biological target: HIV-1 Env of ZM135.10a (HIV-1)
[44] = biological target: HIV-1 Env of ZM197.7 (HIV-1)
[45] = biological target: HIV-1 Env of ZM214.15 (HIV-1)
[46] = biological target: HIV-1 Env of ZM233.6 (HIV-1)
[47] = biological target: HIV-1 Env of ZM249.1 (HIV-1)
[48] = biological target: HIV-1 Env of ZM53.12 (HIV-1)

Substance CAP256-VRC26.33 (antibody) has an IC50 (neutralization, TZM-bl) [1] of over 50 µg/mL, an IC50 (neutralization, TZM-bl) [2] of 0.506 µg/mL and an IC50 (neutralization, TZM-bl) [3] of over 50 µg/mL. The IC50 (neutralization, TZM-bl) [4] was over 50 µg/mL, the IC50 (neutralization, TZM-bl) [5] was over 50 µg/mL and the IC50 (neutralization, TZM-bl) [6] was over 50 µg/mL. For the same substance, the IC50 (neutralization, TZM-bl) [7] was over 50 µg/mL, the IC50 (neutralization, TZM-bl) [8] was over 50 µg/mL and the IC50 (neutralization, TZM-bl) [9] was over 50 µg/mL. The IC50 (neutralization, TZM-bl) [10] was 0.017 µg/mL, the IC50 (neutralization, TZM-bl) [11] was over 50 µg/mL and the IC50 (neutralization, TZM-bl) [12] was over 50 µg/mL. For the same substance, the IC50 (neutralization, TZM-bl) [13] was 0.007 µg/mL, the IC50 (neutralization, TZM-bl) [14] was 0.622 µg/mL and the IC50 (neutralization, TZM-bl) [15] was 0.036 µg/mL. It also gave an IC50 (neutralization, TZM-bl) [16] of over 50 µg/mL, an IC50 (neutralization, TZM-bl) [17] of over 50 µg/mL and an IC50 (neutralization, TZM-bl) [18] of over 50 µg/mL. It also gave an IC50 (neutralization, TZM-bl) [19] of 29.5 µg/mL, an IC50 (neutralization, TZM-bl) [20] of over 50 µg/mL and an IC50 (neutralization, TZM-bl) [21] of 0.037 µg/mL. The IC50 (neutralization, TZM-bl) [22] was over 50 µg/mL, the IC50 (neutralization, TZM-bl) [23] was over 50 µg/mL and the IC50 (neutralization, TZM-bl) [24] was over 50 µg/mL. It also gave an IC50 (neutralization, TZM-bl) [25] of over 50 µg/mL, an IC50 (neutralization, TZM-bl) [26] of over 50 µg/mL and an IC50 (neutralization, TZM-bl) [27] of over 50 µg/mL. It also gave an IC50 (neutralization, TZM-bl) [28] of over 50 µg/mL, an IC50 (neutralization, TZM-bl) [29] of over 50 µg/mL and an IC50 (neutralization, TZM-bl) [30] of over 50 µg/mL. It also gave an IC50 (neutralization, TZM-bl) [31] of over 50 µg/mL, an IC50 (neutralization, TZM-bl) [32] of over 50 µg/mL and an IC50 (neutralization, TZM-bl) [33] of over 50 µg/mL. For the same substance, the IC50 (neutralization, TZM-bl) [34] was over 50 µg/mL, the IC50 (neutralization, TZM-bl) [35] was over 50 µg/mL and the IC50 (neutralization, TZM-bl) [36] was over 50 µg/mL. For the same substance, the IC50 (neutralization, TZM-bl) [37] was over 50 µg/mL, the IC50 (neutralization, TZM-bl) [38] was over 50 µg/mL and the IC50 (neutralization, TZM-bl) [39] was over 50 µg/mL. For the same substance, the IC50 (neutralization, TZM-bl) [40] was over 50 µg/mL, the IC50 (neutralization, TZM-bl) [41] was over 50 µg/mL and the IC50 (neutralization, TZM-bl) [42] was over 50 µg/mL. For the same substance, the IC50 (neutralization, TZM-bl) [43] was over 50 µg/mL, the IC50 (neutralization, TZM-bl) [44] was 1.73 µg/mL and the IC50 (neutralization, TZM-bl) [45] was over 50 µg/mL. The IC50 (neutralization, TZM-bl) [46] was 0.004 µg/mL, the IC50 (neutralization, TZM-bl) [47] was 22.5 µg/mL and the IC50 (neutralization, TZM-bl) [48] was 0.015 µg/mL.

Reference: patent publication US20200199204A1
